In the supplement of paper PMC11865577:

Tests used:
Test in all cases: pull-down binding Z-score (relative to library population); higher = stronger binding
[1] = test system: G-clamp-N3 (biotin conjugate); conditions: RNA library: Library-1 (pre-miRNA loops + repeats)
Method in brief: (§1)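 An RNA library (1 μg) carrying a Cy5 or Cy3 end label was heat-folded in phosphate/NaCl/KCl buffer, then incubated for 60 min at 25 °C with streptavidin beads loaded with 100 pmol of biotin-conjugated small molecule. The beads were washed three times, and bound RNA was released in hot SDS and hybridised to a DNA barcode microarray for 20 h at 55.5 °C. Each binding score was derived by subtracting the signal from beads without compound, averaging the barcoded replicate probes after removing the highest and lowest, and expressing the result as a Z-score relative to the library mean and standard deviation.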

[2] = test system: TO-3-N3 (biotin conjugate); conditions: RNA library: Library-2
Method in brief: as §1

[3] = test system: TO-3-N3-2 (biotin conjugate); conditions: RNA library: Library-2
Method in brief: as §1

TO-N3 (biotin conjugate) = conditions: RNA library: Library-2
Method in brief: as §1

[4] = test system: TO-N3-2 (biotin conjugate); conditions: RNA library: Library-2
Method in brief: as §1

Sequence	pull-down binding Z-score [1]	pull-down binding Z-score [2]	pull-down binding Z-score [3]	pull-down binding Z-score (TO-N3 (biotin conjugate))	pull-down binding Z-score [4]
AGUAUGGAUUAAAUUUAUAUUUUCCUCGAUACU [hsa-mir-8084]	0.482	0.413	0.212	0.316	-0.547
AGUAUUUUAAUCAUAGAUUGUAUUUAGUUAGUUUUUAAUACU [hsa-mir-4637]	-0.0232	-0.732	0.157	-0.955	-0.965
AGUCACUUACACUACAUGUCACU [hsa-mir-892a]	-0.82	-0.926	-0.63	-1.08	-0.587
AGUCACUUAGAUUACAUGUCACU [hsa-mir-892c]	-1.24	0.00628	0.0543	-0.172	-0.486
AGUCACUUAGAUUACAUGUGACU [hsa-mir-888]	0.394	0.0487	-0.513	-0.368	-0.915
AGUCCAAAGGAAAGGGCU [hsa-mir-8077]	-0.578	0.999	0.232	0.822	-0.0277
AGUCCGUGCAUCCGCCCUUCGAUGCUUGGGUU [hsa-mir-3182]	-1.11	-0.405	-0.389	-0.278	0.421
AGUCCUGUAAUUAGAUCUCAGGACU [hsa-mir-625]	-0.0681	-0.745	-0.739	-0.817	-0.88
AGUCUCUGAAGAGAGCUGUGGACUGA [hsa-mir-6721]	1.18	0.726	0.732	0.839	0.916
AGUCUGUCUCAUACCCAACCAGAUU [hsa-mir-205]	-1.11	0.258	0.167	0.14	-0.233
AGUGAAAUAAAGGUCCAUCUCCUGCCUAUUUAUUACUUUGCU [hsa-mir-1243]	-1.12	-0.671	-0.112	-0.718	-0.5
AGUGAGCUGAGAUCACGCAACU [hsa-mir-1273f]	0.617	-0.37	0.00609	0.206	0.629
AGUGAGGCGUCGGCUGUGUUUCU [hsa-mir-2110]	-0.519	0.387	0.174	0.741	1.03
AGUGAGUUGAUUACUUCUCACU [hsa-mir-4676]	-0.179	-0.0959	-0.441	-0.26	-0.222
AGUGCAGUAUGGUGAAGUCAAUCUGUAAU [hsa-mir-590]	1.31	-0.357	0.0335	-0.148	0.424
AGUGCCUCACAGCCGCACAGGACCGAGGAUGCU [hsa-mir-4737]	0.613	0.0032	-0.204	0.371	0.917
AGUGCUAGGACACU [hsa-mir-374c]	-0.247	-0.441	-0.413	-0.616	-0.579
AGUGGAAAAAGUUCUUUUCUUCCUCU [hsa-mir-3192]	0.387	0.0782	0.895	0.0678	-0.263
AGUGGACGAGUCUCAUUA [hsa-mir-3193]	-0.476	0.224	0.319	0.678	0.613

Sequence	pull-down binding Z-score [1]	pull-down binding Z-score [2]	pull-down binding Z-score [3]	pull-down binding Z-score (TO-N3 (biotin conjugate))	pull-down binding Z-score [4]
AGUGGCCAAUUCCU [hsa-mir-4251]	-0.851	-0.482	-0.313	-0.607	-0.274
AGUGGUGCAAUCUCAGUUCACU [hsa-mir-3135a]	-0.112	0.121	-0.238	-0.0142	-0.196
AGUGUGCAGUCAUCCACACA [hsa-mir-4731]	-0.603	-0.32	-0.196	-0.519	-0.401
AGUGUUGUUUUUUCCCCCGCCAAUAUU [hsa-mir-92b]	-0.606	-0.34	0.29	-0.16	0.0118
AGUUACACAGCUCACGAGUGCCU [hsa-mir-370]	-0.352	-0.261	-0.0679	0.113	0.694
AGUUAGAAUUCUUAAGUAUCAAAACUAAAU [hsa-mir-4760]	-1.22	0.216	0.252	0.106	-0.12
AGUUCAGGAGGUGGCACUGCUGUGUGUGAGCU [hsa-mir-6876]	1.55	0.801	0.631	0.97	1.27
AGUUCCUGAUUAAGAAAUGGAAUU [hsa-mir-4699]	-0.224	-0.435	-0.107	-0.814	-1
AGUUCGCUUUUAUUAAUGACGAAUA [hsa-mir-410]	-0.994	-0.624	-0.0101	-0.628	-0.121
AGUUGAACACUUGUUGGGACAACCU [hsa-mir-4421]	-0.336	0.939	0.156	0.971	0.711
AGUUGGACACUCCAUGUGGUAGAGUGUC [hsa-mir-223]	0.453	0.617	-0.0653	0.563	0.0461
AGUUGUGAAUUCUCAAAACACCU [hsa-mir-660]	-0.342	-0.401	-0.349	-0.417	-0.129
AGUUUCUGGAAGUUCUGACAUUCCAGAAACU [hsa-mir-3199-1]	-0.18	-0.846	-0.409	-1.1	-0.95
AGUUUCUGGAAUGUCAGAACUUCCAGAAACU [hsa-mir-3199-2]	-0.327	0.748	0.034	0.392	-0.865
AGUUUGUGAUAAUGUUUGUCUAUAUAGUUAUGAAUG [hsa-mir-4307]	0.397	-0.811	-0.174	-0.633	-0.531
AUAAUACGGAUUACGUUGUUA [hsa-mir-137]	-1.89	-0.188	-0.139	0.148	-0.0367
AUACUGGAGCAAUAGAUACAGUU [hsa-mir-3692]	-0.223	-0.727	-0.389	-0.663	-0.353
AUAGAACAUUGACAUCAACACUAG [hsa-mir-4278]	-2.05	-0.104	-0.0605	-0.204	-0.508
AUAGCACAAAGUCUUAUGGUACUGU [hsa-mir-3169]	1.12	0.174	0.253	0.199	-0.178

Sequence	pull-down binding Z-score [1]	pull-down binding Z-score [2]	pull-down binding Z-score [3]	pull-down binding Z-score (TO-N3 (biotin conjugate))	pull-down binding Z-score [4]
AUAGUUGAGGAGGACACCCAAGGAGAUCACUAU [hsa-let-7e]	-0.413	0.341	0.863	0.871	1.26
AUAGUUGUGGGGUAGUGAUUUUACCCUGUUCAGGAGAUAACUAU [hsa-let-7f-1]	-0.471	0.676	0.657	0.842	0.224
AUAGUUUAGAAUUACAUCAAGGGAGAUAACUGU [hsa-let-7a-2]	0.705	-0.34	0.285	-0.695	-0.163
AUAGUUUGGGGCUCUGCCCUGCUAUGGGAUAACUAU [hsa-let-7a-3]	0.889	-0.227	-0.115	-0.227	0.141
AUAGUUUUAGGGCAGGGAUUUUGCCCACAAGGAGGUAACUAU [hsa-let-7d]	-0.917	0.236	0.589	0.112	0.203
AUAGUUUUAGGGUCACACCCACCACUGGGAGAUAACUAU [hsa-let-7a-1]	0.294	0.853	0.205	0.607	-0.0919
AUAGUUUUAGGGUCAUACCCCAUCUUGGAGAUAACUAU [hsa-let-7f-2]	-1.63	-0.384	0.00457	-0.497	-0.745
AUAUAAAAUGCAAUUA [hsa-mir-3945]	-1.21	0.256	0.327	0.0171	-0.448
AUAUAAGGGAAGGCAUUAUAG [hsa-mir-3117]	0.00615	0.00808	0.0974	0.0219	-0.234
AUAUAGAUAUCAGCUACCUAUAU [hsa-mir-3144]	-0.95	-0.694	-0.329	-1.06	-1.38
AUAUGAGCUUCAUUUAUACAUUUCAUAU [hsa-mir-556]	-0.528	-0.0401	-0.0541	-0.335	-1.01
AUAUGUGUGUAUAUAUGUACACAUAC [hsa-mir-466]	-0.157	-0.227	-0.378	-0.604	-1.14
AUAUUGACACUAUAACAAUAAUGUCAAUAU [hsa-mir-4795]	0.669	-0.438	-0.44	-0.874	-1.79
AUCAAAGUGGGGACUCAUGGGGAGAG [hsa-mir-4284]	0.195	3.11	1.43	2.65	1.07
AUCAAGAAAAGAUUUGGUGUUCUUGAU [hsa-mir-4782]	1.36	-0.152	-0.112	-0.513	-0.784
AUCACUGAAAUAUGUCUGAGCUUCUGUU [hsa-mir-4501]	-0.332	-0.584	-0.00263	-0.658	-0.302
AUCAGCAGAGACAUGAGGUGAUCAAAAACCUUUUUUCAAAGCAGUGGG [hsa-mir-4300]	-0.911	0.48	0.276	0.796	0.438
AUCAGGCAGUUUCCUG [hsa-mir-4289]	-1.29	-0.305	0.101	-0.16	0.0394
AUCAGUUCUCAUUUUACACACUGGC [hsa-mir-24-1]	0.0425	-0.563	-0.0568	-0.54	-0.282
